Test results from patent US12466852B2, “Method for extraction and purification of hirudin mutant and use thereof” (SUNGEN BIOSCIENCE CO., LTD., priority 2019, dated 2025).
Entries after “also recorded” stand apart in the source; their conditions may differ.

Assays:
[1] = biological target: thrombin (Homo sapiens, UniProt P00734); assay: anticoagulant activity by biochemical method determination (Chinese Pharmacopoeia 2005 edition, page 84)
Protocol: According to the analysis of anticoagulant activity by biochemical method determination, the anticoagulant activity of the prepared hirudin mutant HV2-Lys47 was calculated to be 17000 ATU/mg. For the specific determination of anticoagulant activity, reference may be made to the left column of page 84 of the Chinese Pharmacopoeia (2005 edition). Moreover, the purity of the hirudin mutant HV2-Lys47 calculated according to the proportion of color bands in gel electrophoresis had reached to 95%.

[2] = test system: blood coagulation; assay: effects of the amount of hirudin mutant HV2-Lys47 in the blood collection tube on blood coagulation; conditions: for Coagulation: blood collection volume 2
Protocol: Effects of the amount of the hirudin mutant HV2-Lys47, which was prepared and vacuum-lyophilized in Example 9, on blood coagulation were as shown in Table 2 below:
It can be seen from the above table that anticoagulant effect can be achieved when the amount of the hirudin mutant HV2-Lys47 added in the blood collection tube is 0.005 mg or more.

[3] = effects of drying process on the activity of hirudin mutant HV2-Lys47 in anticoagulant blood collection tubes; assay type: physicochemical; conditions: for Activity after drying / Activity loss: content 306ATU/tube
Protocol: Effects of drying process on the activity of hirudin mutant HV2-Lys47 in anticoagulant blood collection tubes were studied.
The hirudin prepared in Example 9 was dissolved in sterile pure water with a dissolution concentration of 3.4 g/100 ml pure water. 2 ml blood collection tubes were used, and each of them was sprayed with the solution of the prepared hirudin mutant HV2-Lys47 by needle spray, and then dried.
The common drying process in the art is high temperature drying: drying three times at 45° C., 50° C. and 70° C., three times for each temperature, and 60 seconds each time.
The drying method in the present application is: drying the sprayed blood collection tubes in a vacuum lyophilizer at a temperature of −50° C. and a vacuum degree of […].
The effects of high temperature drying and vacuum lyophilization methods on the activity of hirudin mutant HV2-Lys47 were as shown in Table 1 below.

[4] = drying for 40 min at −50° C. and with a vacuum degree of −4 Mpa
[5] = drying three times at 45° C., 60 seconds each time
[6] = drying three times at 50° C., 60 seconds each time
[7] = drying three times at 70° C., 60 seconds each time

B1: hirudin mutant HV2-Lys47: hirudin mutant of SEQ ID NO.: 1; asparagine at position 47 of natural hirudin substituted by lysine; produced by Escherichia coli fermentation (protein)
chain: ITYTDCTESGQNLCLCEGSNVCGKGNKCILGSNGKGNQCVTGEGTPKPESHNNGDFEEIPEEYLQ
- anticoagulant activity ([1]; prepared in Example 1 (tube centrifuge, ethanol precipitation)): 17000 ATU/mg
- anticoagulant activity ([1]; prepared in Example 2 (disk centrifuge, 8% salt)): 15800 ATU/mg
- anticoagulant activity ([1]; prepared in Example 3 (ceramic membrane)): 16800 ATU/mg
- anticoagulant activity ([1]; prepared in Example 4 (hollow fiber membrane)): 16000 ATU/mg
- anticoagulant activity ([1]; prepared in Example 5 (methanol precipitation)): 15800 ATU/mg
- anticoagulant activity ([1]; prepared in Example 6 (acetone precipitation)): 17000 ATU/mg
- anticoagulant activity ([1]; prepared in Example 7 (ammonium sulfate precipitation)): 15000 ATU/mg
- anticoagulant activity ([1]; prepared in Example 8 (ceramic membrane, nanofiltration, sodium chloride precipitation)): 14500 ATU/mg
- anticoagulant activity ([1]; prepared in Example 9 (isopropanol precipitation)): 18000 ATU/mg
- amount added in the blood collection tube at which anticoagulant effect can be achieved ([2]; 2 ml blood collection): ≥ 0.005 mg
- Coagulation ([2]; amount 0.001): Quick coagulation
- Coagulation ([2]; amount 0.005): No coagulation
- Coagulation ([2]; amount 0.008): No coagulation
- Coagulation ([2]; amount 0.02): No coagulation
- Coagulation ([2]; amount 0.08): No coagulation
- Coagulation ([2]; amount 0.16): No coagulation
- Coagulation ([2]; amount 0.5): No coagulation
- Coagulation ([2]; amount 1): No coagulation
- Coagulation ([2]; amount 5): No coagulation
- Coagulation ([2]; amount 10): No coagulation
- Coagulation ([2]; amount 15): No coagulation
- Coagulation ([2]; amount 20): No coagulation
- Activity after drying [3, 4]: 304 ATU/tube
- Activity loss [3, 4]: 0.65%
- Activity after drying [3, 5]: 276 ATU/tube
- Activity loss [3, 5]: 9.8%
- Activity after drying [3, 6]: 245 ATU/tube
- Activity loss [3, 6]: 19.9%
- Activity after drying [3, 7]: 160 ATU/tube
- Activity loss [3, 7]: 47.7%
- loss of hirudin activity ([3]; high-temperature drying process generally used in production of a blood collection tube): about 10%
- hirudin activity loss (in words) ([3]; vacuum lyophilization): no hirudin activity loss; also recorded: not lost
